Results from US20110014656A1 (ZymoGenetics, published 2011).
Residue numbers refer to the chain shown, from its start. Blank lines part the entries; values can stand above or below the binder they belong to.

Tests used:
[1] = molecular target: T1, human IL-17RC, x1 splice variant, on transfected cells (human, UniProt Q8NAC3 21-791); assay: FACS, biotinylated cytokine on transiently transfected 293F cells
T1 construct: Expressed on BHK, 293F or NIH3T3 cells; also called hIL-17RC; hIL-17RC (x1)
T1 sequence: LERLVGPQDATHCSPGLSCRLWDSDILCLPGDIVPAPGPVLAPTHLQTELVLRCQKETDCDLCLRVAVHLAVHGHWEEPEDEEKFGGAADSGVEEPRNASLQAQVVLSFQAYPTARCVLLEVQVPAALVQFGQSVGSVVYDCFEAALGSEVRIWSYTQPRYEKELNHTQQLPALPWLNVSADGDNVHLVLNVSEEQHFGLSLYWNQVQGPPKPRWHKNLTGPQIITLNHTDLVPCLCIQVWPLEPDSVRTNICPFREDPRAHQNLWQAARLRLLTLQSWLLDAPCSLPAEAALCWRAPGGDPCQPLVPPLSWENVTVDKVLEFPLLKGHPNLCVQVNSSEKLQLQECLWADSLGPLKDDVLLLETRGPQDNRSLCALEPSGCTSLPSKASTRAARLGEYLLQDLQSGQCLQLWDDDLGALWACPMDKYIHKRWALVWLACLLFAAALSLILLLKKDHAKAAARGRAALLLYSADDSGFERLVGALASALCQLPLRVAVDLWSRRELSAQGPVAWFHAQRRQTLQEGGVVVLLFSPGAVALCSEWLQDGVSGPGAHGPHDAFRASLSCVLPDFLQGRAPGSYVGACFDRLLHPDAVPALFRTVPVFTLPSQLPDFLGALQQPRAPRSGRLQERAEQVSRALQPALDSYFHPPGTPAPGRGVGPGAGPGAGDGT
Text: (§1) However, the other splice variants tested either included or excluded hIL-17RC exon 12. These variants were designated hIL-17RCx1 (identical in exon composition to mouse x1 above), hIL-17RCx4 (identical in exon composition to mouse x4 above), hIL-17RCx2, and hIL-17RCx7.

[2] = molecular target: T2, human IL-17RC, x4 splice variant, on transfected cells (human, UniProt Q8NAC3 21-791); assay: as above
T2 construct: Expressed on 293F, BHK or NIH3T3 cells; also called hIL-17RCx4; hIL-17RCX4
T2 sequence: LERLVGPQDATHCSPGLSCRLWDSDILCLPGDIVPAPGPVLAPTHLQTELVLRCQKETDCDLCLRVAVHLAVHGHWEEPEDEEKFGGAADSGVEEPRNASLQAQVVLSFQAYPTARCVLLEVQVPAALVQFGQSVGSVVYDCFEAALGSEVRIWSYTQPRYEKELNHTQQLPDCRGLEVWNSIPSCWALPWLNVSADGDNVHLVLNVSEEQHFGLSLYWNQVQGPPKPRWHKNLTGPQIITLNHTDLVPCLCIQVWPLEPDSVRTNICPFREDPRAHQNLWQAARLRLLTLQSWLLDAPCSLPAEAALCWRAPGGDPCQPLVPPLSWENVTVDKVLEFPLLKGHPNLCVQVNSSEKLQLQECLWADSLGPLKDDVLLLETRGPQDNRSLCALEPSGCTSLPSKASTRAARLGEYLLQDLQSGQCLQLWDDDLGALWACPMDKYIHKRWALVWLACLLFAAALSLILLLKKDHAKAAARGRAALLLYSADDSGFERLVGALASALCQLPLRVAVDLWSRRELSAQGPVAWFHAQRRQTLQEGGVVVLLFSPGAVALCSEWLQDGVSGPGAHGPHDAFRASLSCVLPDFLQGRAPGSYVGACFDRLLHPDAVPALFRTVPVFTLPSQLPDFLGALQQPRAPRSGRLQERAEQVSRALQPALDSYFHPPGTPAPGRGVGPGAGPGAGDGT
Text: as §1

[3] = molecular target: T1, human IL-17RC, x1 splice variant, on …; assay: competition, cold competitor vs 125I-IL-17A on BHK hIL-17RC cells
Protocol: Cold competitors were added in 100 fold molar excess. […] Wells were incubated on ice for 1-hour followed by two washes with PBS (Invitrogen 20012-027) and one wash with a high salt solution (1.5M NaCL, 50 mM HEPES pH 7.4). Wells were extracted with 500 ul of 0.8M NaOH for 30 min. at room temperature and counts per minute were measured in a gamma counter (Packard Cobra II A5005).

[4] = molecular target: T3, human IL-17 receptor (IL-17RA) on transfected cells (human, UniProt Q96F46 33-320); assay: FACS, biotinylated cytokine on stably transfected BHK cells
T3 construct: it may not be the full-length receptor; also called hIL-17RA
T3 sequence: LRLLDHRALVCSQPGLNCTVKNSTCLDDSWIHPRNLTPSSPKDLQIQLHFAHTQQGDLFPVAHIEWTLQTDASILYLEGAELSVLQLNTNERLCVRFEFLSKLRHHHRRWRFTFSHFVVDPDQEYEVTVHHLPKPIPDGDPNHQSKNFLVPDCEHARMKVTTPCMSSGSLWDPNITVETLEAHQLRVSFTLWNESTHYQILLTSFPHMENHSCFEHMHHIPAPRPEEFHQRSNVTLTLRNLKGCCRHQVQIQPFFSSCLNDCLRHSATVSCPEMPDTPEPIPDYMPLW

human IL-17A = molecular target: T4, human IL-17A (human, UniProt Q16552 24-155); assay: cell-based competition binding, FACS
T4 construct: also called hIL-17A; hIL17A
T4 sequence: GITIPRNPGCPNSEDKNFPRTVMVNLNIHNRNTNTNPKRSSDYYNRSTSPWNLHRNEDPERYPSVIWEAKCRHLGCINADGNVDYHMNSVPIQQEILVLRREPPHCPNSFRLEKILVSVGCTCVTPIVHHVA
Protocol: (§2) The biotinylation of the ligand allows for FACS detection using a secondary Streptavidin conjugated fluorophore. A reduction in cell bound ligand over a titration of the soluble receptor is recorded as a reduction in the mean fluorescence of the cells. Biotinylated ligands are individually pre-mixed at 1 ug/ml with titrating amounts of soluble receptor in staining media (HBSS+1% BSA+0.1% NaAzide+10 mM HEPES) in 100 ul volumes and incubated at RT for 15 minutes. A BHK cell line stably transfected with full length IL17RCx4 is prepared for ligand staining by resuspension with Versene (Invitrogen cat. 15040-066), equilibrating to 2×10e5 cells/100 ul, pelleting, and resuspension in the ligand/soluble receptor pre-mix. Stained cells are incubated at 4° for 30 minutes, washed 1× in staining media, and stained with Streptavidin-PE (BD Pharmingen cat. 554061) at a 1:100 ratio. Cells are incubated at 4° in the dark for 30 minutes, washed 2× in staining media, and re-suspended in a 1:1 ratio of staining media and Cytofix (BD Bioscience 554655). The BD LSRII Flow Cytometer or similar instrument is used for data collection and analysis. FIG. 5 depicts a standard graph. The graph was generated using the Prizm software program. The Y values represent the MFI normalized to maximum and minimum (100% and 0%) based on ligand only and no ligand/no soluble receptor control wells, and thus the percent binding of the ligand to the cells. The software calculates the IC50 for each curve.

human IL-17F = molecular target: T5, human IL-17F (human, UniProt Q96PD4 31-163); assay: cell-based competition binding, FACS
T5 construct: also called hIL-17F; hIL17F
T5 sequence: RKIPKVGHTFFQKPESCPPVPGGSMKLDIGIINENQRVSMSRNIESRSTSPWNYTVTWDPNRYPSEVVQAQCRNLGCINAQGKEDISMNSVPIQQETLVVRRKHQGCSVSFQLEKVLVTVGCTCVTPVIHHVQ
Protocol: as §2

B2: human IL-17C (ligand, UniProt Q9P0M4 19-197, looked up)
chain: HHDPSLRGHPHSHGTPHCYSAEELPLGQAPPHLLARGAKWGQALPVALVSSLEAASHRGRHERPSATTQCPVLRPEEVLEADTHQRSISPWRYRVDTDEDRYPQKLAFAECLCRGCIDARTGRETAALNSVRLLQSLLVLRRRPCSRDGSGLPTPGAFAFHTEFIHVPVGCTCVLPRSV
notes: also called hIL-17C
- binding result [3]: no binding (tested: 100 fold molar excess)

B4: Variant 1390 (Fc fusion)
chain: LERLVGPQDATHCSPGLSCRLWDSDILCLPGDIVPAPGPVLAPTHLQTELVLRCQKETDCDLCLRVAVHLAVHGHWEEPEDEEKFGGAADSGVEEPRNASLQAQVVLSFQAYPTARCVLLEVQVPAALVQFGQSVGSVVYDCFEAALGSEVRIWSYTQPRYEKELNHTQQLPALPWLNVSADGDNVHLVLNVSEEQHFGLSLYWNQVQGPPKPRWHKNLTGPQIITLNHTDLVPCLCIQVWPLEPDSVRTNICPFREDPRAHQNLWQAARLRLLTLQSWLLDAPCSLPAEAALCWRAPGGDPCQPLVPPLSWENVTVDKVLEFPLLKGHPNLCVQVNSSEKLQLQECLWADSLGPLKDDVLLLETRGPQDNRSLCALEPSGCTSLPSKASTRAARLGEYLLQDLQSGQCLQLWDDDLGALWACPMDKYIHKEPKSSDKTHTCPPCPAPEAEGAPSVFLFPPKPKDTLMISRTPEVTCVVVDVSHEDPEVKFNWYVDGVEVHNAKTKPREEQYNSTYRVVSVLTVLHQDWLNGKEYKCKVSNKALPSSIEKTISKAKGQPREPQVYTLPPSRDELTKNQVSLTCLVKGFYPSDIAVEWESNGQPENNYKTTPPVLDSDGSFFLYSKLTVDKSRWQQGNVFSCSVMHEALHNHYTQKSLSLSPGK
notes: The entry may include the signal peptide; also called IL17RC 1390
- IC50 (human IL-17A): 12 µg/mL
- IC50 (human IL-17F): 9 µg/mL

B5: Variant 1459 (Fc fusion)
chain: B4 chain with L1A
notes: The entry may include the signal peptide; also called IL17RC 1459
- IC50 (human IL-17A): 126 µg/mL
- IC50 (human IL-17F): 103 µg/mL

More lines, main results first:

- binding result [1]: no binding
- binding result [2]: binds
B1: murine IL-17F (ligand)
chain: RKNPKAGVPALQKAGNCPPLEDNTVRVDIRIFNQNQGISVPREFQNRSSSPWDYNITRDPHRFPSEIAEAQCRHSGCINAQGQEDSTMNSVAIQQEILVLRREPQGCSNSFRLEKMLLKVGCTCVKPIVHQAA
notes: also called mIL-17F; mIL17F

- binding result [4]: no binding
B3: human IL-17E (ligand, UniProt Q9H293 33-177, looked up)
chain: YSHWPSCCPSKGQDTSEELLRWSTVPVPPLEPARPNRHPESCRASEDGPLNSRAISPWRYELDRDLNRLPQDLYHARCLCPHCVSLQTGSHMDPRGNSELLYHNQTVFYRRPCHGEKGTHKGYCLERRLYRVSLACVCVRPRVMG
notes: also called hIL-17E
- binding result [3]: no binding (tested: 100 fold molar excess)

- binding result [4]: no binding
B6: human IL-17D (ligand, UniProt Q8TAD2 18-202, looked up)
chain: APRAGRRPARPRGCADRPEELLEQLYGRLAAGVLSAFHHTLQLGPREQARNASCPAGGRPADRRFRPPTNLRSVSPWAYRISYDPARYPRYLPEAYCLCRGCLTGLFGEEDVRFRSAPVYMPTVVLRRTPACAGGRSVYTEAYVTIPVGCTCVPEPEKDADSINSSIDKQGAKLLLGPNDAPAGP
notes: also called hIL-17D
- binding result [3]: no binding (tested: 100 fold molar excess)
